Results published in patent US20180265843A1, “METHOD AND MEDIUM FOR NEURAL DIFFERENTIATION OF PLURIPOTENT CELLS” (INSERM 9INSTITUT NATIONAL DE LA SANTÉ ET DE LA RECHERCHE …, priority 2009, published 2018).

Legend:
hES cells [1] = assay: FACS analysis of culture composition after differentiation with Noggin, SB431542 or both (NFS); assay type: cell-based, human; conditions: for differentiation of hES cells into an alternative fate than the neural lineage: 8 days treatment in N2B27; for proportion of neural cells, in words: 8 days treatment in N2B27, FACS
Excerpt: A—FACS analyses of the composition of the whole culture after 8 days of differentiation in N2B27 alone or completed with Noggin, SB431542 or both (NFS). B—QPCR quantification of transcript specific of ES cells (Oct4 and Nanog) and early neural precursors (PAX6 and SOX1) for each condition of differentiation.
(§1) Human ES cell cultures or IFS cultures reaching 70-80% confluence were used to perform neural induction using NFS medium. Colonies were cut in pieces and manually detached in N2B27 or NFS medium completed with the Rock-inhibitor Y27632 (10 μM, Calbiochem). Clusters were transferred for 6 h in a low attachment Petri dish in order to completely starve them from the influence of the feeders. Finally, the hES or IFS suspension was plated in the same medium at a 1:1 ratio in culture dishes pre-coated with poly-ornithin and laminin (2 μg/ml, Sigma). The day after and then every other day, the medium was changed for NFS medium without Y27632.
Cells were collected using trypsin and fixed with 2% PFA for 15 min at 4° C. Permeabilization was performed using a PBS/0.1% saponin solution 10 min at RT. The same solution was then used to dilute primary antibodies as followed: mouse monoclonal OCT4 antibody linked to phycoerythrin (oct4-PE, 1:10°, BD Biosciences) and polyclonal rabbit anti-SOX2 antibody (1:500°, Chemicon). Cells were exposed to the mixture of primary antibodies 45 min at RT. An additional incubation with anti-rabbit secondary antibodies linked to AlexaFluo 488 was performed during 30 min at RT in order to detect SOX2 unconjugated antibodies. FACS analysis was performed using a Becton Dickinson FACScalibur™ flow cytometer.
We first monitored the efficiency of neural differentiation obtained only by removing from the culture medium any known instructive signals for alternative cell fates. We used N2B27 medium, a defined medium previously developed to induce neural differentiation of both mouse and human embryonic stem cells in an adherent monolayer culture system (Ying et al., 2003; Lowell et al., 2006). In order to analyzed consistently differentiation of several naïve hES cell lines, we have develop a protocol of systematic counting where cells were stained using antibodies against OCT4 and SOX2 transcription factors and then, analysed using FACS technology. Cells expressing both OCT4 and SOX2 were considered as embryonic stem cells whereas cells expressing only SOX2 were counted as neural cells. Cells totally negative or expressing only OCT4 were designated as differentiated into other type of tissues or layers. FACS analysis was performed on 4 hES cell lines (Hues 24, H9, VUB01, SA01), 8 days after platting on laminin in N2B27. Neural differentiation was obtained with all cell lines, but the efficiency of differentiation appeared highly variable depending of the cell line used, ranging from 33.84% for SA01 line to 82.33% for VUB01 line (FIG. 1-A).

hES cells [2] = assay: Real-time qPCR of lineage marker transcripts after differentiation; assay type: cell-based, human; conditions: for expression of early neural markers PAX6 and SOX1: 8 days treatment in N2B27, qPCR; for neural crest cells (PAX3+/SOX10+) and keratinocytes (Cytokeratins 8 and 18), alternative fates from primitive ectoderm: 8 days treatment, qPCR and ICC
Protocol: as §1
Total RNA was isolated using the RNeasy Mini Kit (Qiagen) according to the manufacturer's instructions. A total of 500 ng of RNA were reverse transcribed into cDNA with SuperScript III (Invitrogen) using random primers. Real-time Q-PCR was performed with SYBR Green as a probe on a LC480 Real-Time system (Roche). Quantification was performed at a threshold detection line (Ct value). The Ct of each target gene was normalized against that of the cyclophilin as a housekeeping gene. The 2-ΔΔCt method was used to determine the relative level of expression of each gene. Data were expressed as mean±SEM. Primer sequences are listed in follow.

[3] = 8 days of differentiation, qPCR

`NC(=O)c1ccc(-c2nc(-c3ccc4c(c3)OCO4)c(-c3ccccn3)[nH]2)cc1` [SB431542, 4-(5-Benzol[1,3]dioxol-5-yl-4-pyrlidn-2-yl-1H-imidazol-2-yl)-benzamide hydrate, reference compound] was tested, and the “differentiation of hES cells into an alternative fate than the neural lineage” value (hES cells [1]) was “drastic differentiation of ES into an alternative fate”, the “proportion of neural cells, in words” value (hES cells [1]) was “didn't increase robustly” and the “markers of primitive endoderm (SOX17, FOXA1) and primitive mesoderm (Brachyury, FLK1)” value (hES cells [2]; [3]) was “not detected”. The “expression of early neural markers PAX6 and SOX1” value (hES cells [2]) was “didn't increase robustly” and the “neural crest cells (PAX3+/SOX10+) and keratinocytes (Cytokeratins 8 and 18), alternative fates from primitive ectoderm” value (hES cells [2]) was “detected”.

B1: Noggin: natural inhibitor of the BMP pathway; recombinant noggin from R&D Systems or Preprotech (protein, UniProt Q13253 28-232, looked up)
Noggin: QHYLHIRPAPSDNLPLVDLIEHPDPIFDPKEKDLNETLLRSLLGGHYDPGFMATSPPEDRPGGGGGAAGGAEDLAELDQLLRQRPSGAMPSEIKGLEFSEGLAQGKKQRLSKKLRRKLQMWLWSQTFCPVLYAWNDLGSRFWPRYVKVGSCFSKRSCSVPEGMVCKPSKSVHLTVLRWRCQRRGGQRCGWIPIQYPIISECKCSC
With B1 the “differentiation of hES cells into an alternative fate than the neural lineage” value (hES cells [1]) was “complete blockage”, the “proportion of neural cells, in words” value (hES cells [1]) was “slight increased” and the “ES cells expressing Oct4 and NANOG remaining in the culture” value (hES cells [1]; after 8 days of treatment) was “a large number of ES cells”. For the same molecule, the “markers of primitive endoderm (SOX17, FOXA1) and primitive mesoderm (Brachyury, FLK1)” value (hES cells [2]; [3]) was “not detected”, the “transcripts of extra-embryonic tissue markers CDX2 and Eomes” value (hES cells [2]; [3]) was “not detected” and the “expression of early neural markers PAX6 and SOX1” value (hES cells [2]) was “slight increased”. For the same molecule, the “neural crest cells (PAX3+/SOX10+) and keratinocytes (Cytokeratins 8 and 18), alternative fates from primitive ectoderm” value (hES cells [2]) was “not detected”.
